Assay results: the supplement of paper PMC7877785
± gives the uncertainty stated by the source.

Test: self-splicing fitness, log relative to wild type (ln ratio); higher = more splicing; Tetrahymena group I intron in knt gene, E. coli kanamycin selection, DiMSum; sequences stand for … in CUCUCU…GGAGGGAAAAGUUAUCAGGCAUGCACCUGGUAGCUAGUCUUUAAACCAAUAGAUUGCAUCGGUUUAAAAGGCAAGACCGUCAAAUUGCGGGAAAGGGGUCAACAGCCGUUCAGUACCAAGUCUCAGGGGAAACUUUGAGAUGGCCUUGCAAAGGGUAUGGUAAUAAGCUGACGGACAUGGUCCUAACCACGCAGCCAAGUCCUAAGUCAACAGAUCUUCUGUUGAUAUGGAUGCAGUUCACAGACUAAAUGUCGGUCGGGGAAGAUGUAUUCUUCUCAUAAGAUAUAGUCGGACCUCUCCUUAAUGGGAGCUAGCGGAUGAAGUGAUGCAACACUGGAGCCGCUGGGAACUAAUUUGUAUGCGAAAGUAUAUUGAUUAGUUUUGGAGUACUCGUGGUCG
Method in brief: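 Library with all eight P1ex-region intron nucleotides randomised, intron inside the knt kanamycin-resistance gene on pET-22b(+), in E. coli BL21(DE3). Cells grew overnight at 37°C or 30°C on LB agar with or without 25 μg/mL kanamycin (plus 100 μg/mL carbenicillin, 50 μM IPTG, 0.2% rhamnose), in six replicate transformations. Pooled colonies were amplicon-sequenced on Illumina HiSeq 2500. DiMSum fitness is the error-weighted combination of wild-type-normalised replicate fold changes, kanamycin versus none.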

| Sequence | self-splicing fitness (ln) (30 °C) | self-splicing fitness (ln) (37 °C) |
| --- | --- | --- |
| GAUAAGCAAUAUUACGGACU | -0.638 ± 0.07 | -0.289 ± 0.094 |
| GAUAAGCAAUAUUACGGCAA | -0.963 ± 0.14 | -0.998 ± 0.16 |
| GAUAAGCAAUAUUACGGCCA | -1.15 ± 0.18 | 0.818 ± 0.17 |
| GAUAAGCAAUAUUACGGGAC | -2.82 ± 0.13 | -1.18 ± 0.1 |
| GAUAAGCAAUAUUACGGGAU | -2.39 ± 0.18 | -1.89 ± 0.19 |
| GAUAAGCAAUAUUACGUAAU | -1.78 ± 0.073 | -0.923 ± 0.1 |
| GAUAAGCAAUAUUACGUAGU | -2.09 ± 0.083 | -0.957 ± 0.091 |
| GAUAAGCAAUAUUACGUAUA | -1.81 ± 0.12 | -1.01 ± 0.11 |
| GAUAAGCAAUAUUACGUAUU | -4.03 ± 0.37 | -1.78 ± 0.21 |
| GAUAAGCAAUAUUACGUCAA | -1.66 ± 0.16 | -1.39 ± 0.14 |
| GAUAAGCAAUAUUACGUGAA | -2.2 ± 0.13 | -1.63 ± 0.15 |
| GAUAAGCAAUAUUACGUGCG | -0.71 ± 0.083 | -0.166 ± 0.13 |
| GAUAAGCAAUAUUACGUUCC | -3.71 ± 0.28 | -2.94 ± 0.24 |
| GAUCAGCAAUAUUACGAAGC | -1.74 ± 0.078 | -0.845 ± 0.086 |
| GAUCAGCAAUAUUACGAAUU | -1.21 ± 0.065 | -0.655 ± 0.083 |
| GAUCAGCAAUAUUACGACGG | -2.63 ± 0.28 | -0.19 ± 0.25 |
| GAUCAGCAAUAUUACGACGU | 0.142 ± 0.076 | 0.682 ± 0.089 |
| GAUCAGCAAUAUUACGAGUU | -1.26 ± 0.094 | -0.882 ± 0.12 |
| GAUCAGCAAUAUUACGAUAC | -1.08 ± 0.078 | -0.733 ± 0.12 |
| GAUCAGCAAUAUUACGCAAA | -0.978 ± 0.17 | -0.367 ± 0.16 |
| GAUCAGCAAUAUUACGCAGG | -3.3 ± 0.29 | -1.09 ± 0.12 |
| GAUCAGCAAUAUUACGCGGC | -3.7 ± 0.37 | -2.89 ± 0.4 |
| GAUCAGCAAUAUUACGCGUA | -0.39 ± 0.095 | -0.283 ± 0.14 |
| GAUCAGCAAUAUUACGGAUG | -1.19 ± 0.068 | -0.813 ± 0.076 |

| Sequence | self-splicing fitness (ln) (30 °C) | self-splicing fitness (ln) (37 °C) |
| --- | --- | --- |
| GAUCAGCAAUAUUACGGCAG | -3.4 ± 0.33 | -2.34 ± 0.27 |
| GAUCAGCAAUAUUACGGCCU | -1.13 ± 0.22 | -1.18 ± 0.23 |
| GAUCAGCAAUAUUACGGCUA | -0.263 ± 0.099 | 0.0701 ± 0.11 |
| GAUCAGCAAUAUUACGGCUG | -3.29 ± 0.19 | -1.12 ± 0.16 |
| GAUCAGCAAUAUUACGGUAC | -0.39 ± 0.11 | -0.884 ± 0.12 |
| GAUCAGCAAUAUUACGGUCG | -1.42 ± 0.092 | -0.484 ± 0.088 |
| GAUCAGCAAUAUUACGUAUA | -0.819 ± 0.091 | -0.975 ± 0.088 |
| GAUCAGCAAUAUUACGUAUU | -2.69 ± 0.12 | -1.38 ± 0.12 |
| GAUCAGCAAUAUUACGUCUU | 0.24 ± 0.076 | 0.0656 ± 0.085 |
| GAUCAGCAAUAUUACGUGGG | -3.21 ± 0.13 | -1.7 ± 0.11 |
| GAUCAGCAAUAUUACGUUUG | -1.53 ± 0.058 | 0.151 ± 0.08 |
| GAUGAGCAAUAUUACGACAA | -2.95 ± 0.31 | – |
| GAUGAGCAAUAUUACGACGC | -0.267 ± 0.15 | 0.408 ± 0.23 |
| GAUGAGCAAUAUUACGAGGA | -2.63 ± 0.17 | -2.89 ± 0.15 |
| GAUGAGCAAUAUUACGAUGG | -1.57 ± 0.13 | -2 ± 0.25 |
| GAUGAGCAAUAUUACGCACG | -3.63 ± 0.32 | -2.25 ± 0.3 |
| GAUGAGCAAUAUUACGCAUU | – | -1.96 ± 0.39 |
| GAUGAGCAAUAUUACGCGCC | -3.17 ± 0.3 | -2.26 ± 0.2 |
| GAUGAGCAAUAUUACGGACG | – | -1.49 ± 0.26 |
| GAUGAGCAAUAUUACGGCAG | – | -2.52 ± 0.41 |
| GAUGAGCAAUAUUACGGCGA | -2.19 ± 0.17 | -1.38 ± 0.13 |
| GAUGAGCAAUAUUACGGGAA | -3.01 ± 0.23 | -3.7 ± 0.42 |
| GAUGAGCAAUAUUACGUAUA | – | -1.82 ± 0.35 |
| GAUGAGCAAUAUUACGUGAG | -2.88 ± 0.23 | -2.06 ± 0.28 |

| Sequence | self-splicing fitness (ln) (30 °C) | self-splicing fitness (ln) (37 °C) |
| --- | --- | --- |
| GAUUAGCAAUAUUACGAAAG | -2.38 ± 0.25 | -0.574 ± 0.23 |
| GAUUAGCAAUAUUACGAAGA | -1.25 ± 0.43 | -0.415 ± 0.38 |
| GAUUAGCAAUAUUACGAAGG | -3.53 ± 0.43 | -1.8 ± 0.35 |
| GAUUAGCAAUAUUACGAUUC | -2.58 ± 0.22 | -1.45 ± 0.2 |
| GAUUAGCAAUAUUACGCGCG | -1.03 ± 0.097 | -0.745 ± 0.12 |
| GAUUAGCAAUAUUACGCGGA | -3.19 ± 0.26 | -1.55 ± 0.15 |
| GAUUAGCAAUAUUACGGAAU | -2.71 ± 0.15 | -2.11 ± 0.17 |
| GAUUAGCAAUAUUACGGAUC | -2.71 ± 0.4 | -2.18 ± 0.32 |
| GAUUAGCAAUAUUACGGGGU | -3.45 ± 0.18 | -2.11 ± 0.13 |
| GAUUAGCAAUAUUACGGUAG | -2.5 ± 0.15 | -1.21 ± 0.12 |
| GAUUAGCAAUAUUACGGUAU | -1.75 ± 0.12 | -1.14 ± 0.14 |
| GAUUAGCAAUAUUACGGUUU | -0.946 ± 0.083 | 0.231 ± 0.11 |
| GAUUAGCAAUAUUACGUAUG | -1.75 ± 0.065 | -1.33 ± 0.087 |
| GAUUAGCAAUAUUACGUCAA | -2.6 ± 0.41 | -0.886 ± 0.22 |
| GAUUAGCAAUAUUACGUGCA | -1.7 ± 0.14 | -0.0754 ± 0.09 |
| GAUUAGCAAUAUUACGUUAC | -2.63 ± 0.19 | -2.53 ± 0.23 |
| GAUUAGCAAUAUUACGUUCC | -2.41 ± 0.3 | -1.59 ± 0.19 |
| GCAAAGCAAUAUUACGAAGU | -3.24 ± 0.16 | -1.22 ± 0.11 |
| GCAAAGCAAUAUUACGACUC | -0.773 ± 0.13 | 0.0939 ± 0.11 |
| GCAAAGCAAUAUUACGACUU | -0.0792 ± 0.067 | -0.0895 ± 0.087 |
| GCAAAGCAAUAUUACGAGAA | -3 ± 0.2 | -1.66 ± 0.18 |
| GCAAAGCAAUAUUACGAGUG | -2.57 ± 0.097 | -0.371 ± 0.092 |
| GCAAAGCAAUAUUACGAUCC | -0.0105 ± 0.12 | -0.518 ± 0.13 |
| GCAAAGCAAUAUUACGCAAU | -3.41 ± 0.13 | -1 ± 0.092 |

| Sequence | self-splicing fitness (ln) (30 °C) | self-splicing fitness (ln) (37 °C) |
| --- | --- | --- |
| GCAAAGCAAUAUUACGCAGU | -3.23 ± 0.28 | -2.42 ± 0.23 |
| GCAAAGCAAUAUUACGCCAU | -2.9 ± 0.17 | -1.6 ± 0.22 |
| GCAAAGCAAUAUUACGCCCU | -0.279 ± 0.2 | 0.0848 ± 0.16 |
| GCAAAGCAAUAUUACGCGCC | -2.2 ± 0.26 | -2.09 ± 0.36 |
| GCAAAGCAAUAUUACGCUGG | -2.41 ± 0.13 | -0.395 ± 0.14 |
| GCAAAGCAAUAUUACGGAGU | -3.58 ± 0.17 | -2.42 ± 0.21 |
| GCAAAGCAAUAUUACGGGUU | -2.11 ± 0.12 | -1.67 ± 0.16 |
| GCAAAGCAAUAUUACGGUUA | -0.938 ± 0.08 | -0.429 ± 0.076 |
| GCAAAGCAAUAUUACGUAGC | -4.47 ± 0.46 | -1.71 ± 0.22 |
| GCAAAGCAAUAUUACGUCAA | -3.16 ± 0.19 | -2.02 ± 0.14 |
| GCAAAGCAAUAUUACGUCGG | -3.15 ± 0.19 | -1.22 ± 0.13 |
| GCAAAGCAAUAUUACGUGCU | -3.46 ± 0.12 | -2.73 ± 0.17 |
| GCAAAGCAAUAUUACGUUAU | -1.73 ± 0.084 | -1.54 ± 0.092 |
| GCACAGCAAUAUUACGACAC | -0.345 ± 0.078 | 0.29 ± 0.093 |
| GCACAGCAAUAUUACGAGAA | -2.66 ± 0.25 | -0.185 ± 0.12 |
| GCACAGCAAUAUUACGAGGA | -2.11 ± 0.096 | -1.23 ± 0.099 |
| GCACAGCAAUAUUACGAUAC | -1.21 ± 0.074 | -0.488 ± 0.084 |
| GCACAGCAAUAUUACGAUAG | -1.91 ± 0.087 | -1.14 ± 0.1 |
| GCACAGCAAUAUUACGAUGA | -0.231 ± 0.076 | -0.14 ± 0.078 |
| GCACAGCAAUAUUACGAUGG | -0.945 ± 0.072 | -1.06 ± 0.081 |
| GCACAGCAAUAUUACGAUUG | -2.27 ± 0.077 | -0.657 ± 0.083 |
| GCACAGCAAUAUUACGCAAA | -1.72 ± 0.15 | -0.898 ± 0.16 |
| GCACAGCAAUAUUACGCAGU | -1.65 ± 0.12 | -1.32 ± 0.13 |
| GCACAGCAAUAUUACGCCCU | -0.527 ± 0.094 | 0.00502 ± 0.11 |
